Data from US20210040189A1 (Amgen, published 2021).
Where a chain is given by its changes, count along the chain named.

T1: human DKK1 (human, UniProt O94907 32-266)
T1 construct: also called huDKK1; hDKK1
T1 sequence: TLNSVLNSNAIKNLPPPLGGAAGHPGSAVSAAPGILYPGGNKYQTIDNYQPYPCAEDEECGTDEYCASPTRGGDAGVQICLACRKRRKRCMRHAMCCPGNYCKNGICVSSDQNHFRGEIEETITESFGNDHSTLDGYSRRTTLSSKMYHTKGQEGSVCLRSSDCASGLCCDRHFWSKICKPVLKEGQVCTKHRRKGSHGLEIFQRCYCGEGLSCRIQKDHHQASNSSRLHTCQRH

T2: mouse DKK1 (mouse, UniProt O54908 32-272)
T2 construct: also called murine DKK1
T2 sequence: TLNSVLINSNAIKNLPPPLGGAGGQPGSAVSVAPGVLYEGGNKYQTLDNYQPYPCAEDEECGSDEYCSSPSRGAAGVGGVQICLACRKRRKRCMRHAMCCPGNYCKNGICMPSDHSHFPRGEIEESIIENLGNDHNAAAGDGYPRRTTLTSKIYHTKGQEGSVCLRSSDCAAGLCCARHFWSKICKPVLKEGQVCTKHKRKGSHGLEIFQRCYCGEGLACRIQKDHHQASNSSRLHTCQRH

B1: 2.20.1 (antibody, V domains shown)
VH: QVQLVESGGGVVQPGRSLRLSCAASGFTFSSYGMHWVRQAPGKGLEWVAVISYDGSDKYYADSVKGRFTISRDNSKNTLYLQMNSLRAEDTAVYYCARDQWGGSPAGPWGQGTLVTVSS
VL: DIVMTQTPLSLSVIPGQPASISCKSSQSLLHSDGKTYLYWYLQRPGQPPQLLIYEVSNRFSGVPHRLSGSGSGTDFTLKISRVEAEDVGVYYCMQSIQVPWTFGQGTKVEIK
notes: Fully human hybridoma IgG, kappa (Vk)
B2: 2.41.1 (antibody, V domains shown)
VH: QVQLVESGGGVVQPGRSLRLSCAASGFTFSSYGMHWVRQAPGKGLEWVAVISYDGSDKYYADSVKGRFTISRDNSKNTLYLQMNSLRAEDTAVYYCARAGYSLYYYYGMDVWGQGTTVTVSS
VL: B1 VL with I14T, R44K, H65D, L67F, I97K, V99L, W101F, Q105P, E110D
notes: as for B1
B3: 6.139.5 (antibody, V domains shown)
VH: QVQLVESGGGVVQPGRSLRLSCAASGFTFSSYGMHWVRQAPGKGLEWVAVISYDGGDQYYADSVKGRFTISRDNSKNTLYLQMNSLRTEDTAEYYCARELRVLWGQGTLVTVSS
VL: B1 VL with I14T, G16R, R44K, L51F, H65D, L67F, V99L
notes: as for B1
B4: 5.80.1 (antibody, V domains shown)
VH: EVQLVQSGAEVKKPGESLKISCKGSGYSFTSYWIGWVRQMPGKGLEWMGIIYPGDSDTRYSPSFQGQVTISADKSISTAYLQWSSLTASDTAMYYCARQGESFDYWGQGTLVTVSS
VL: QSVLTQPPSVSGAPGQRVTISCTGSSSNIGADYDVHWYQQLPGTAPKLLIYDYSNRPSGVPDRFSGSKSGTSASLAITGLQAEDEADYYCQSYDNSLSGYVVFGGGTKLTVL
notes: Fully human hybridoma IgG, lambda (Vl)
B5: 2.4.1 (antibody, V domains shown)
VH: QVQLMQSGAEVKKPGASVKVSCKASGYTFTSYGISWVRQAPGQGLEWMGWISADNGHTNYAQKLQGRVTMTTDTSTSTAYMELRSLRSDDTAVYYCARDGELLNYYYYYGMDVWGQGTTVTVSS
VL: DIQMTQSPSSLSASVGDRVTITCRASQGIRDDLGWFQQKPGKAPKRLIYAASSLQSGVPSRFSGSGSGTEFTLTISSLQPEDFATYYCLQHNSYPCSFGQGTKLEFK
notes: as for B1
B6: 5.78.1 (antibody, V domains shown)
VH: QVQLVESGGGVVQPGRSLRLSCAASGFTFSSYGMHWVRQAPGKGLEWVAVILYDGSDNYYADSVKGRFTISRDNSKNTLYLQMNSLRAEDTAVYYCAREGIAVAGDYYYYGMDVWGQGTTVTVSS
VL: EIVLTQSPGTLSVSPGERATLSCRASQSVSSSYLAWYQQKPGQAPRLLIYGASGRATGIPDRFSGSGSGTDFILTISRLEPEDFAVYYCQQYGSSFTFGGGTKVEIK
notes: as for B1
B7: 5.23.1 (antibody, V domains shown)
VH: QVQLVESGGGVVQPGRSLRLSCAASGFTFSSYGMHWVRQAPGKGLEWVAVIWCDGSNKYYADSVKGRFTISRDSSKNTLYLQMNSLRAEDTAVYYCARGGYGSGSYEDYYYGMDVWGQGTTVTVSS
VL: not shown
B8: 2.47.1 (antibody, V domains shown)
VH: QVQLQESGPGLVKPSQTLSLTCTVSGGSISSGGYYWSWIRQHPGKGLEWIGDIYYSGSTYYNPSLKSRVTISVDTSKNQFSLKLSSVTAADTAVYYCARDRAYGDYGGDYYYGMDVWGQGTTVTVSS
VL: DIVMTQTPLSLPVTPGEPASISCRSSQSLLDSDDGDTYLDWYLQKPGQSPQLLIYTLSYRASGVPDRFSGSGSGTDFTLKISRVEAEDVGVYYCMQRIEFPFTFGPGTKVDIK
notes: as for B1
B9: 6.147.4 (antibody, V domains shown)
VH: QVQLVESGGGVVQPGRSLRLSCAASGFTFSRYDMHWVRQAPGKGLEWVAIIFYDGSNKYYADPVKGRFTISRDNSKNTLYLQMNSLRAEDTAVYYCATLAAAFDYWGQGTLVTVSS
VL: YVLTQPPSVSVAPGQTARITCGGNNIGSKSVHWYQQKPGQAPVLVVYDDSDRPSEIPERFSGSNSGNTATLTISRVEAGDEADYYCQVWDSSSDHVVFGGGTRLTVL
notes: as for B4
B10: 5.17.1 (antibody, V domains shown)
VH: QVQLQESGPGLVKPSETLSLTCTVSGGSISSYYWSWIRQPPGKGLEWIGYIYYSGNTNYNPSLKSRVTISVDTSKNQFSLKLRSVTAADTAVYYCARYNWNNDLFDYWGQGTLVTVSS
VL: DIQMTQSPSSLSASVGDRVTITCQASQDINNYLNWYQQKPGKAPNLLIYDASNLETGVPSRFSGSGSGTDFTFTISSLQPADIATYYCQQYDDFPLTFGGGTKVEIK
notes: as for B1
B11: 5.31.1 (antibody, V domains shown)
VH: B6 VH with L52W, S56R, D57N, N58K, E99G, I101G, G105D, D106Y, Y107N
VL: B10 VL with M4V, N30S, N45K, L46F, T56A, A81E, D93N, F94L
notes: as for B1
B12: 5.40.1 (antibody, V domains shown)
VH: B10 VH with Q3L, P40T, I51V, N56S, N58S, V71M, D72Y, N76T, Q77E, R83S
VL: B10 VL with Q3R, M4L, N30S, K39E, N45K, A81E, D93N
notes: as for B1
B13: 5.77.1 (antibody, V domains shown)
VH: QVQLVQSGAEVKKPGASVKVSCKASGYTFTSYDINWVRQATGQGLEWMGWMNLNSDNTGYAQKFQGRVTMTRNTSISTAYMELSSLRSEDTAVYYCASIAARRDYNYYGMDVWGQGTKVTVSS
VL: QSPSVSVAPGQTARITCGGNNIGSKSVHWYQQKPGQAPVLVVYDDSDRPSGIPERFSGSNSGNTATLTISRVEAGDEADYYCQVWDSSSDHWVFGGGTKLTVL
notes: as for B4
B14: 5.65.1 (antibody, V domains shown)
VH: EVQLLESGGGLVQPGGSLRLSCAASGFTSGNYAMSWVRQAPGKGLEWVSAISGGGGTTYYADSVEGRFTISRDNSKNTLYLQLNSLRAEDTAVYYCAKEFGELEPRFDYWGQGTLVTVSS
VL: SYVLTQPPSVSVAPGQTARITCGGNNIGSKSVHWYQQKPGQAPVLVVYDDSDRPSGIPERFSGSNSGNTATLTISRVEAGDEADYYCQVLDSSSDHVIFGGGTKLTVL
notes: as for B4
B15: 5.76.1 (antibody, V domains shown)
VH: QLQLQESGPGLVKPSETLSLTCTVSGGSISSSNYYWGWIRQPPGKGLEWIGTIYYSGSTYYTPSLKSRVTISVDTSKNQFSLKLSSVTAADTAVYYCARERAIAVAAIVFFDYWGQGTLVTVSS
VL: B14 VL with K30E, L90W, S94N, I98V
notes: as for B4
B16: 5.85.1 (antibody, V domains shown)
VH: B4 VH with G24V, S31T, E46D, T87K, E101I, S102A
VL: QSVLTQPPSVSGAPGQRVTISCTGSSSNIGAGYDVHWYQQLPRTAPKLLIYGNSNRPSGVPDRFSDSKSGTSASLAITGLQAEDEADYYCQSYDSSLSVIFGGGTKLTVL

target: T1, human DKK1; assay: BiaCore 2000
Description: BiaCore allowed us to determine the kd of the selected antibodies.

| koff [s⁻¹] | Binder |
| --- | --- |
| 0.00024 | B1 |
| 0.0013 | B2 |
| 0.000209 | B3 |
| < 2e-05 | B4 |
| 0.0006 | B5 |
| 0.000191 | B6 |
| 0.000181 | B7 |
| 0.00092 | B8 |
| 0.000251 | B9 |
| 0.000303 | B10 |
| 0.000105 | B11 |
| 0.000281 | B12 |
| < 2e-05 | B13 |
| 0.000525 | B14 |
| 0.000241 | B15 |

target: T1, human DKK1; assay: cell-based or functional assay

| ST2 EC50 [nM] | TCF EC50 [nM] | Binder |
| --- | --- | --- |
| 34.7 | 10.7 | B1 |
| 89.1 | 32.1 | B2 |
| 3.93 | 9.78 | B3 |
| 5.03 | 3.22 | B4 |
| 10.6 | 4.53 | B16 |
| 17.2 | 38.6 | B5 |
| 5.7 | 3.75 | B6 |
| 4.29 | 1.01 | B7 |
|  | 60.7 | B8 |
| 2.57 | 3.95 | B9 |
| 8.24 | 3.48 | B10 |
| 10.4 | 5.29 | B11 |
| 7.24 | 3.75 | B12 |
| 6.23 | 2.14 | B13 |
| 5.87 | 4.21 | B14 |
| 4.09 | 2.55 | B15 |

target: T1, human DKK1; assay: KinExA 3000 equilibrium binding in solution
Protocol: (§1) Accordingly, the affinity of several of these antibodies to DKK1 was further assessed by an equilibrium binding analysis using the more sensitive KinExAtm 3000. For these measurements, Reacti-Gel 6× beads (Pierce, Rockford, Ill.) were pre-coated with human, cynomologous or mouse DKK1 and blocked with BSA. One hundred pM, 300 pM, or 1000 pM of the antibody was mixed with various concentrations of human, mouse or cyno DKK1, ranging in concentration from 1 pM to 50 nM, and equilibrated at room temperature for 8 hours. The mixtures were then passed over the DKK1-coated beads. The amount of bead-bound anti-DKK1 antibody was quantified using goat anti-human-IgG antibody labeled with a fluorescent tag (Cy5; Jackson Immuno Research, West Grove, Pa.). The amount of fluorescent signal measured was proportional to the concentration of free anti-DKK1 antibody in each reaction mixture at equilibrium. The dissociation equilibrium constant (Kd) was obtained from nonlinear regression of the competition curves using a dual-curve one-site homogeneous binding model using the KinExA software.

| Kd [nM] | Binder |
| --- | --- |
| 0.11 | B3 |
| 0.06 | B4 |
| 0.125 | B9 |
| 0.008 | B13 |

target: T2, mouse DKK1; assay: KinExA 3000 equilibrium binding in solution
Protocol: as §1

| Kd [nM] | Binder |
| --- | --- |
| 0.025 | B4 |
| 0.14 | B13 |
